We go through two substances from US20090238821A1.

A value given as a limit tells only on which side of the number the result lay.

In one test the target is Amyloid-beta 1-40 (UniProt P05067). Description: BIAcore 2000, antibody captured by rabbit anti-mouse, peptide flowed.
A further test deals with Amyloid-beta 1-42 (UniProt P05067). Described as above.
Test [1] deals with human Aβ peptide (human) (UniProt P05067). Description: BIAcore 2000, 266 against 4G8. (Surface plasmon resonance follows binding to a sensor surface in real time, without labels.)
Test [2] shares this target. Description: dialysis chamber, 1 mL human CSF against 1 µg Mab 266, 100 kD cutoff, 3 hours, ELISA. In general terms: ELISA stands for enzyme-linked immunosorbent assay.
For test [3] the target is unchanged. In words: plasma of APP V717F mice given 1 mg Mab 266 i.v., non-denaturing gel, blot with biotin-3D6 and 125I-streptavidin against Aβ40/266 standards (in vivo).
For test [4], the target named is β-amyloid peptide (1-42) conjugated to BSA (UniProt P05067). In words: competitive ELISA on Aβ1-42-BSA, competitor of biotinylated Mu266 (0.3 µg/ml), first set.
Test [5] deals with human Aβ peptide (human) (UniProt P05067). In words: dialysis chamber, 1 mL human CSF against 1 µg Mab 266, 25 kD cutoff, 3 hours, ELISA.
Test [6] shares this target. Description: plasma of APP V717F mice given 200 or 600 µg Mab 266 i.v., RIA (in vivo).
Test [7] concerns the target β-amyloid peptide (1-42) conjugated to BSA (UniProt P05067). Description: competitive ELISA on Aβ1-42-BSA, competitor of biotinylated Mu266 (0.3 µg/ml), second set.

The term Kd denotes the free concentration of one partner at which half of the binding sites on the other are occupied at equilibrium, for simple one-to-one binding. On to Mab 4G8 (antibody), for which the Kd was determined as 23 nM with Amyloid-beta 1-40 and 24 nM in the test with Amyloid-beta 1-42.
A word on the IC50: it is the concentration that inhibits the measured activity by half. Higher therefore signals a need for much substance. As to mouse monoclonal antibody 266, in the test with human Aβ peptide (human) [1], the fold difference in affinity between 266 and 4G8 stood at 6000 fold. Further, the percent of Aβ peptide drawn across the membrane in the test with human Aβ peptide (human) [2] came to 100%. Also, the Kd with Amyloid-beta 1-40 and in the test with Amyloid-beta 1-42 was 4000 nM each time. Moreover, the amount of Aβ peptide bound to Mab 266 in plasma in the test with human Aβ peptide (human) [3] was found to be 100 ng/mL. Further, the IC50 in [4] is 4.7 µg/mL; in test [7] it was 3.87 µg/mL. The substance also registered a percent of Aβ peptide sequestered in the bottom chamber with human Aβ peptide (human) [5] of 50%. In the test with human Aβ peptide (human) [6], the concentration of Aβ bound to Mab 266 in plasma is more than 100 ng/mL.
